Reference: patent publication US8642834B2, “Methods for the identification of agents that inhibit mesenchymal-like tumor cells or their formation” (OSI Pharmaceuticals, LLC, priority 2009, dated 2014)

B1: BMP7: bone morphogenetic protein 7, R&D systems, 100 ng/ml (protein, UniProt P18075 293-431, looked up)
Bone morphogenetic protein 7: STGSKQRSQNRSKTPKNQEALRMANVAENSSSDQRQACKKHELYVSFRDLGWQDWIIAPEGYAAYYCEGECAFPLNSYMNATNHAIVQTLVHFINPETVPKPCCAPTQLNAISVLYFDDSSNVILKKYRNMVVRACGCH
B2: CTGF: Connective tissue growth factor, Peprotech, 20 ng/ml (protein, UniProt P29279 27-349, looked up)
CCN family member 2: QNCSGPCRCPDEPAPRCPAGVSLVLDGCGCCRVCAKQLGELCTERDPCDPHKGLFCHFGSPANRKIGVCTAKDGAPCIFGGTVYRSGESFQSSCKYQCTCLDGAVGCMPLCSMDVRLPSPDCPFPRRVKLPGKCCEEWVCDEPKDQTVVGPALAAYRLEDTFGPDPTMIRANCLVQTTEWSACSKTCGMGISTRVTNDNASCRLEKQSRLCMVRPCEADLEENIKKGKKCIRTPKISKPIKFELSGCTSMKTYRAKFCGVCTDGRCCTPHRTTTLPVEFKCPDGEVMKKNMMFIKTCACHYNCPGDNDIFESLYYRKMYGDMA
B3: IL-33: Interleukin-33, Peprotech, 50 ng/ml (protein, UniProt O95760 1-270, looked up)
Interleukin-33: MKPKMKYSTNKISTAKWKNTASKALCFKLGKSQQKAKEVCPMYFMKLRSGLMIKKEACYFRRETTKRPSLKTGRKHKRHLVLAACQQQSTVECFAFGISGVQKYTRALHDSSITGISPITEYLASLSTYNDQSITFALEDESYEIYVEDLKKDEKKDKVLLSYYESQHPSNESGDGVDGKMLMVTLSPTKDFWLHANNKEHSVELHKCEKPLPDQAFFVLHNMHSNCVSFECKTDPGVFIGVKDNHLALIKVDSSENLCTENILFKLSET
B4: BMP4: bone morphogenetic protein 4, R&D systems, 100 ng/ml (protein, UniProt P12644 293-408, looked up)
Bone morphogenetic protein 4: SPKHHSQRARKKNKNCRRHSLYVDFSDVGWNDWIVAPPGYQAFYCHGDCPFPLADHLNSTNHAIVQTLVNSVNSSIPKACCVPTELSAISMLYLDEYDKVVLKNYQEMVVEGCGCR

Test system: CFPAC-1 cells
Test: Induction of EMT by growth factors and cytokines, E-cadherin and vimentin immunoblotting
Assay type: cell-based, human
Settings: CFPAC-1 cells treated 7 days with ligand
Protocol: The CFPAC1 cell line was cultured in DMEM media (Gibco #11960) supplemented with 10% FBS (Sigma), 2 mM L Glutamine (Gibco), at 37° C., 5% CO2. For 7 day treatments, cells were seeded on tissue culture plastic in complete growth media and allowed to attach overnight at cell densities that would provide approximately 60-80% confluence at end of experiment. Ligand and/or inhibitor was added the following day (Day 0) in complete growth media and incubated at 37° C., 5% CO2. Ligand source and concentrations used are as follows: [1] From R&D systems, SDF-1α (stromal derived factor-1 alpha) at 100 ng/ml, TRANCE (TNF-related activation induced cytokine) at 50 ng/ml, FGF1 (fibroblast growth factor acidic) at 10 ng/ml, FGF2 (fibroblast growth factor basic) at 10 ng/ml, BMP4 (bone morphogenetic protein 4) at 100 ng/ml, BMP7 (bone morphogenetic protein 7) at 100 ng/ml, IGF2 (insulin-like growth factor 2) at 100 ng/ml, OSM (Oncostatin M) at 100 ng/ml, NRG1 (Neuregulin-1) at 50 ng/ml, PDGFaa (Platelet derived growth factor a) at 50 ng/ml, PDGFbb (platelet derive growth factor b) at 30 ng/ml, Ang2 (Angiopoeitin 2) at 400 ng/ml, amphiregulin at 100 ng/ml, HMGB 1 (Human high-mobility group box 1 protein) at 50 ng/ml; [2] From Genscript, LIF (Leukemia inhibitory factor) at 20 ng/ml, GM-CSF (Granulocyte macrophage colony stimulating factor) at 25 ng/ml, M-CSF (Macrophage colony stimulating factor) at 50 ng/ml; [3] From Anaspec, PAR1 (Protease activated receptor 1 agonist) at 100 μM; PAR2 (Protease activated receptor 2 agonist; peptide SLIGKV-NH2, Cat. No. 60217-1) at 100 μM; PAR4 (Protease activated receptor […] agonist; peptide AYPGKF-NH2, Cat. No. 60218-1) at 100 μM; [4] From Peprotech, HGF (Hepatocyte Growth Factor) at 100 ng/ml; IL-31 (Interleukin-31) at 50 ng/ml, IL-33 (Interleukin-33) at 50 ng/ml, IL1-a (Interleukin-1 alpha) at 10 ng/ml, CTGF (Connective tissue growth factor) at 20 ng/ml, WISP1 (Wnt-1 inducible signaling pathway protein) at 20 ng/ml, PTHrP ([…] hormone-related protein) at 50 ng/ml, MCP1 (monocyte chemotactic protein-1) at 50 ng/ml; and [5] from Sigma, Fulvestrant at 1 μM. Fresh medium containing ligand and/or inhibitor was added 3-4 days after initial dose, and at Day 7 cells were harvested for western blot analysis.
Cells were harvested by washing once with PBS, and lysing on ice for 10 minutes with scraping (using a Cell Lifter, Corning Inc. #3008) in ice cold RIPA buffer (Sigma R0278) containing Protease inhibitor (Sigma P8340), Phosphatase inhibitors (Sigma P2850, P5726) and 200 μM Sodium Vanadate. Supernatents were micro-centrifuged at max speed, 4° C. for 10 minutes. Protein content was quantitated using the BCA method (Pierce #23225) and samples were normalized to total protein in Laemli buffer and heated at 100° C. for 10 minutes. SDS PAGE was run using a Bis-Tris gel system (Invitrogen NuPAGE) with MOPS buffer (Invitrogen NP0001), transferred onto nitrocellulose using the iBLOT system (Invitrogen) and blocked in PBS-T (0.1% Tween 20), 5% non-fat milk or BSA in guidance with primary Ab supplier requirements. All primary antibodies were incubated overnight at 4° C. in PBS-T (0.1% Tween 20) in either 5% non-fat milk or BSA, diluted to the following working dilutions: anti E Cadherin (Santa Cruz #sc-21791) 1:500 dilution; anti Vimentin (BD Biosciences #550513) 1:2000 dilution;); anti GAPDH HRP conjugate (Santa Cruz sc-25778) 1:1000 dilution; anti β-Actin (Sigma, A5441) 1:10,000 dilution. […]

| Molecule | Induction of EMT (E-cadherin down, vimentin up) |
| --- | --- |
| B1 | Partial EMT |
| B2 | Partial EMT |
| B3 | Partial EMT |
| B4 | Partial EMT |
